Target: the molecule itself
Assay: SEC-MALS

B1: GabR from Bacillus subtilis with C-terminal His6-tag (natural protein)
chain: MDITITLDRSEQADYIYQQIYQKLKKEILSRNLLPHSKVPSKRELAENLKVSVNSVNSAYQQLLAEGYLYAIERKGFFVEELDMFSAEEHPPFALPDDLKEIHIDQSDWISFSHMSSDTDHFPIKSWFRCEQKAASRSYRTLGDMSHPQGIYEVRAAITRLISLTRGVKCRPEQMIIGAGTQVLMQLLTELLPKEAVYAMEEPGYRRMYQLLKNAGKQVKTIMLDEKGMSIAEITRQQPDVLVTTPSHQFPSGTIMPVSRRIQLLNWAAEEPRRYIIEDDYDSEFTYDVDSIPALQSLDRFQNVIYMGTFSKSLLPGLRISYMVLPPELLRAYKQRGYDLQTCSSLTQLTLQEFIESGEYQKHIKKMKQHYKEKRERLITALEAEFSGEVTVKGANAGLHFVTEFDTRRTEQDILSHAAGLQLEIFGMSRFNLKENKRQTGRPALIIGFARLKEEDIQEGVQRLFKAVYGHKKIPVTGD
stoichiometry N: 2

From PMC4756830 (Nucleic Acids Research, 2015)
